Results published in patent US9835633.

B1: endogenous PCSK2 of NSE-apoE4 mouse neurons/brain (protein)
chain: GYRDINEIDINMNDPLFTKQWYLFNTGQADGTPGLDLNVAEAWELGYTGKGVTIGIMDDGIDYLHPDLAYNYNADASYDFSSNDPYPYPRYTDDWFNSHGTRCAGEVSAAASNNICGVGVAYNSKVAGIRMLDQPFMTDIIEASSISHMPQLIDIYSASWGPTDNGKTVDGPRELTLQAMADGVNKGRGGKGSIYVWASGDGGSYDDCNCDGYASSMWTISINSAINDGRTALYDESCSSTLASTFSNGRKRNPEAGVATTDLYGNCTLRHSGTSAAAPEAAGVFALALEANLDLTWRDMQHLTVLTSKRNQLHDEVHQWRRNGVGLEFNHLFGYGVLDAGAMVKMAKDWKTVPERFHCVGGSVQNPEKIPPTGKLVLTLKTNACEGKENFVRYLEHVQAVITVNATRRGDLNINMTSPMGTKSILLSRRPRDDDSKVGFDKWPFMTTHTWGEDARGTWTLELGFVGSAPQKGLLKEWTLMLHGTQSAPYIDQVVRDYQSKLAMSKKQELEEELDEAVERSLQSILRKN
B2: endogenous PCSK1 of NSE-apoE4 mouse neurons/brain (protein)
chain: SVQKDSALDLFNDPMWNQQWYLQDTRMTAALPKLDLHVIPVWEKGITGKGVVITVLDDGLEWNHTDIYANYDPEASYDFNDNDHDPFPRYDLTNENKHGTRCAGEIAMQANNHKCGVGVAYNSKVGGIRMLDGIVTDAIEASSIGFNPGHVDIYSASWGPNDDGKTVEGPGRLAQKAFEYGVKQGRQGKGSIFVWASGNGGRQGDNCDCDGYTDSIYTISISSASQQGLSPWYAEKCSSTLATSYSSGDYTDQRITSADLHNDCTETHTGTSASAPLAAGIFALALEANPNLTWRDMQHLVVWTSEYDPLASNPGWKKNGAGLMVNSRFGFGLLNAKALVDLADPRTWRNVPEKKECVVKDNNFEPRALKANGEVIVEIPTRACEGQENAIKSLEHVQFEATIEYSRRGDLHVTLTSAVGTSTVLLAERERDTSPNGFKNWDFMSVHTWGENPVGTWTLKITDMSGRMQNEGRIVNWKLILHGTSSQPEHMKQPRVYTSYNTVQNDRRGVEKMVNVVEKRPTQKSLNGNLLVPKNSSSSNVEGRRDEQVQGTPSKAMLRLLQSAFSKNALSKQSPKKSPSAKLSIPYESFYEALEKLNKPSKLEGSEDSLYSDYVDVFYNTKPYKHRDDRLLQALMDILNEEN

Biological target: human apolipoprotein E4
Sequence (chain, as listed by the source): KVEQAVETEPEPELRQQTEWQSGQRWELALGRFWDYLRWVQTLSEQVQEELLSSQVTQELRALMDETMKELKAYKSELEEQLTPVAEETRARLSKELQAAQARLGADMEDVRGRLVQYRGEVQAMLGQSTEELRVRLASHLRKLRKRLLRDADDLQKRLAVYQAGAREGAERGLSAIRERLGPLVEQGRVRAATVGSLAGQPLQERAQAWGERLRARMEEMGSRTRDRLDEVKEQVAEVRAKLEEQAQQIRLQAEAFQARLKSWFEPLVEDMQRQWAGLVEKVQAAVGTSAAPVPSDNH

Row | Protein | apoE fragmentation after PCSK2 shRNA in PCSK1 null and PCSK1 WT primary neurons | apoE fragmentation in NSE-apoE4 primary neurons after shRNA knockdown | apoE fragmentation by western blot in brains of PCSK1 null, NSE-apoE4 pups | apoE fragmentation in PCSK1 null primary neurons
1 | B1 | PCSK2 shRNAs or 7B2 shRNAs decrease apoE fragmentation in PCSK1 null, primary neurons as well as in PCSK1 WT primary neurons | knocking down either PCSK1 or PCSK2 in NSE-apoE4 primary neurons decreased apoE fragmentation | – | –
2 | B2 | – | knocking down either PCSK1 or PCSK2 in NSE-apoE4 primary neurons decreased apoE fragmentation | a significant decrease in apoE fragmentation was observed in PCSK1 null, NSE-apoE4 brains compared to that of PCSK1 WT, NSE-apoE4 brains | A decrease of apoE fragmentation was observed in PCSK1 null primary neurons compared to PCSK1 wild-type (WT) neurons
